Test results taken from a protein production outcome set (Wang et al. 2014).

Assay: label from the status in PepcDB records

Sequence | protein production
MAVLNLFHIFATTVDSTAVEKNLLIMKFYNREKEIAELKRVQELAFGQNSRMIVVTGRRRIGKTSLIKQALKGTPTVYFFIGRKAESILVADFIKIVRETLSIFIPDGISNFTTLIQYLFEIGKTRSFNIVIDEFQEFYNIRPDVFSDMQNLWDEYRQETKINLVISGSVYSLMQKIFTDHGEPLFGRADNILCLRPFNTKVLKQIMEDFAPGYSNDDLLALYTLTGGIPKYVELFCDNQALSVDRIYDFVFSENSLFIDEGRNLLITEFGKNYGIYFSILLEIANGHYTQGEIESALGGISIGGHLSKLENVYNLITRERPIFAKPGTKKNVRYIIGDNFLNFWFKYIERNRSYIELQNFEDLRQLAKADYQTYSGRVLEKYFKQKLAEEGGFKEIGSWWETKSSANKERLNSFEIDIVALKSSGKKALIAEVKRMPENNYVHSTFMEKVEHLKHKEMAKYDIETRVLGLEDM | failed
MAVNPATGKSDFVMMSEQQELGMGARYNQEILKQFPRYNDEKLQAYVQRVGERVARSSHRSNLQYHFTVIDSPDINAFALPGGYIYIHRGLIAYLGSEAELAAVLGHEVGHVTARHSVRQQSQASAWNILGQAVAIGTGVGAAGDLANVLGTAFVRGYGRDMELEADGLGAQYLARAGYDPTAMIQVVRVLKNQEDFAREEAARNGQAVQAGGYHGLFDTHPDNDRRLQEVVGPARQLANGQQEVGREVFLRHLEGMPFGDSASAGVRRGQNFYHAELDFTLSYPAGWKILNQPSALLGYPADEQSFIGMKLVPHDSRLTPAEFLRKNAGQRLAQEESLKQAGLNGYTAVVPGNPARRVAVIYQGDRAYLFVGVVKVGSLETQDDRFLSVIRSFRPLRDKERALAQPRRLHLVQVKAGQTLEQLAAGGEGSLSDSVARLRLLNDLYPSGEPRPGDWLKVVRLEHHHHHH | failed
MAVNQDTLYVKGDRNVEVTKREVTLGDLVSMECSNRVILPHLKTMKVLKIPENGEKRYVISILKIIACIHEKYPGLEVQNLGETDLIVTYEMQKTPSK | not failed
MAVTDVFARRATLRRSLRLLADFRYEQRDPARFYRTLAADTAAMIGDLWLATHSEPPVGRTLLDVGGGPGYFATAFSDAGVGYIGVEPDPDEMHAAGPAFTGRPGMFVRASGMALPLADDSVDICLSSNVAEHVPRPWQLGTEMLRVTKPGGLVVLSYTVWLGPFGGHEMGLSHYLGGARAAARYVRKHGHPAKNNYGSSLFAVSAAEGLRWAAGTGAALAVFPRYHPRWAWWLTSVPVLREFLVSNLVLVLTP | failed
MAVYMLNMGIVFVWSWFAKMYGREDHRLPTGYRPNAILTVVPLASLIIVAGLRYKVGTDYHTYMLLYELAGKYNSIWEIFGFGTGKSSTDPGFTALLWILNQISADPALMFAVVAAITYIYIVKTLYVYGRPFELSMFLFIGMFHYYASFNGIRQYMAAAILFWAVRYLIDGKLVRYMIVVLICSLFHSSALIMIPVYFIVRRKAWSPVLWCLMLVFLAGTFLYQKFLSVFLVVLENSQYGHYEEWLMKNTNGMNVIKIIVLLLPLALAFCFREQLRKRWPEVDYIVNLCLIGFLFGILATKDVIFARFNIYFGLYQLILVPYFVRIFEPKSNALLYVLILICYFLYSFMLMPFDSSVLPYRTIFER | failed
MAWHAAEDRSLGFKETYLMQRFGAGVVIDDFELVEKLPSGGMASLWRATNPRYDFPLVLKIPFLDPGADVSVILGFEAEELILKRLSGPHVPRFAASGSLAQVPYIAMEFVVGKGLADIVGNAPLPMDEVARIGIEIATALAALHRQKVVHLDLKPENVVLANRGAVLLDFGLARHEELPDFLGAESSVPMGTAAYISPEQVLGERSDPASDLFALGCILFQLATGEEPFGRPATLAGMKRRLYHAPRSPRDINDAIPRWLEAIILKCMEVDRSQRYIEAAHILSDLRSPDQVVVAKRKPRNEGGWAAITSLFRKTDDRSLVGRASSTRTQAGPSIVLAAVDLANGTDALAGEVLNETARVLASREDSWLACVTVLRTEIIGDTPATDETGRSVYLKRLVALKDWAYPLHLPEDRISYHVLEAVSPADAILTYAEHNDVGHIVVGARASSAIRRHLGSVSTKVVAQALCSVSVVRLKAVEEQQRRPL | failed
MAYGKAHLEAQLKRALAEEIQALEDPRLFLLTVEAVRLSKDGSVLSVYVEAFREEEGALRALSRAERRLVAALARRVRMRRLPRLEFLPWRASPA | not failed
MAYIYGFRTLDRRVFYLALSRLIRASGRVSSFIFLPLIFIEIYSISFLITGLILGSSAIAMAFVQYYSGRWTDRIGRRFFLIVIPIPAAVFYFLMFTTVYLHMSVILLIIFWYGTIITNSLQYPAIEASVADVTSTSERLSGYTLIRIMANLGAAVGPLAGGFLAGINFSYIFLLASIFTVIELFILYYNVRETFLPARAIAEKIKLKIFKTDRFFFLFTLVGVFLGFTLRQNGPTLTVYAFDLKNLPLMDIGYLYSLNGIVVIALQMPILRLMSSRSNPVFWRGIGTIYYSIGFVILGIAPTFLYILLAMFIFTVGEDFMSPTTQTIITTLAPAEKKGSYIGSYNLLTSFGRFFGTIFGLYFLFIYQKTTFTFWIIIATSTGVIGLLYIFMSESFIKRTSKIATLPGKA | failed
MAYTIGVDFGTLSGRAVLVHVQTGEELAAAVKEYRHAVIDTVLPKTGQKLPRDWALQHPADYLEVLETTIPSLLEQTGVDPKDIIGIGIDFTACTILPIDSSGQPLCMLPEYEEEPHSYVKLWKHHAAQKHADRLNQIAEEEGEAFLQRYGGKISSEWMIPKVMQIAEEAPHIYEAADRIIEAADWIVYQLCGSLKRSNCTAGYKAMWSEKAGYPSDDFFEKLNPSMKTITKDKLSGSIHSVGEKAGSLTEKMAKLTGLLPGTAVAVANVDAHVSVPAVGITEPGKMLMIMGTSTCHVLLGEEVHIVPGMCGVVDNGILPGYAGYEAGQSCVGDHFDWFVKTCVPPAYQEEAKEKNIGVHELLSEKANHQAPGESGLLALDWWNGNRSTLVDADLTGMLLGMTLLTKPEEIYRALVEATAYGTRMIIETFKESGVPIEELFAAGGIAEKNPFVMQIYADVTNMDIKISGSPQAPALGSAIFGALAAGKEKGGYDDIKKAAANMGKLKDITYTPNAENAAVYEKLYAEYKELVHYFGKENHVMKRLKTIKNLQFSSAAKK | not failed
MAYTTTVKLDGDTKTYTLSPTVKKYTLMDLGFVKGRSGAFSFERSLDPTSPYQAAFKLKMTVNADLTGFKMTTVTGNGVQRANIFKNDAHPEAVEQLRYILANFIERDILTTD | not failed
MCDAHLRGPSGIITSPNFPIQYDNNAHCVWIITALNPSKAGGDPGNIQCNKEGLSVETQSLRLRNRSCLLGNSKDNGCCVPNPVHGTGLQVIKLAFEEFDLERGYDTLTVGDGGQDGDQKTVLYILTGTSVPDLIVSTNHQMWLLFQTDGSGSSLGFKASYEEIEQGSCGDPGIPAYGRREGSRFHHGDTLKFECQPAFELVGQKAITCQKNNQWSAKKPGCVCK | failed
MCDRHQKLIRATDKPNFFGIDHYGFPEAGEHPADPPGYYPEYFSSERFQRLGYHVEELRGGFYWVTSGGYDAAFVVTSDGVVAIDAPPTIGENMLAAIEDVTDKPVTHLIYSHWHTDHIGAASVFGPNVEIVAHDITKELLERFPDPNRPVPTVTFDKDHLLVVGGVTLELSYKGENHCPGNIFIYAPAQKVLTVIDIVSPGSATFMHCDASQNITGWYEAQKQLMEYEFDFLVAGHHMKYGTPETVAASIEYFQDVLDGAQAAVDRFSRSDALVSILEGAGWDQVFSGTENWINSMANFATKYVLEKKSSNGQLWSERLAGVTTQTKYHAYTVLESIRLERPRPNYRLRGENPPPFLT | failed
MCDRTSKNENRILTISALLASGFAAGGMVLGLLVGSIVIVFDGVYSLVSLLLTLLSLAASSYISKPSKSVFPFGKAVLEPIVIAIKAAVILVVVCFSLYSAISALMTGGREVDTSIATIFGLVNVIGCGYAWWFMAKKSRRFSSGLIDAEKKQWQMDTLLSVAVTVGFIAAWLVSLTPFAHYAVYADPMMMLLMGFYFLKVPFDMLCGALRELLMMTPSKELCQVVGNDVLEIEKVSDHQLKLAGITKVGQELRVNIDLHVDDDMIELDTLEQTRKQLTTRLSKHRFKLQLNLNVANC | failed
MCFPYNKTVAMLAVLMLSGCEDQAALRNADNPPSPPAARMTEFGPGTEDATITQHPYMDNRHAINEGKRLYSWFNCTGCHAHGGGGMGPPLMDKQWIYGSEPAQIFASIMEGRPNGMPAFHGKIPEQEVWKIVAYVRSLGGLSKDLPAGASSRPLQEQAESDKREVKTP | failed
MCFSFIMPPAMADILDIWAVDSQIASDGSIPVDFLLPTGIYIQLEVPREATISYIKQMLWKQVHNYPMFNLLMDIDSYMFACVNQTAVYEELEDETRRLCDVRPFLPVLKLVTRSCDPGEKLDSKIGVLIGKGLHEFDSLKDPEVNEFRRKMRKFSEEKILSLVGLSWMDWLKQTYPPEHEPSIPENLEDKLYGGKLIVAVHFENCQDVFSFQVSPNMNPIKVNELAIQKRLTIHGKEDEVSPYDYVLQVSGRVEYVFGDHPLIQFQYIRNCVMNRALPHFILVECCKIKKMYEQEMIAIEAAINRNSSNLPLPLPPKKTRIISHVWENNNPFQIVLVKGNKLNTEETVKVHVRAGLFHGTELLCKTIVSSEVSGKNDHIWNEPLEFDINICDLPRMARLCFAVYAVLDKVKTKKSTKTINPSKYQTIRKAGKVHYPVAWVNTMVFDFKGQLRTGDIILHSWSSFPDELEEMLNPMGTVQTNPYTENATALHVKFPENKKQPYYYPPFDKIIEKAAEIASSDSANVSSRGGKKFLPVLKEILDRDPLSQLCENEMDLIWTLRQDCREIFPQSLPKLLLSIKWNKLEDVAQLQALLQIWPKLPPREALELLDFNYPDQYVREYAVGCLRQMSDEELSQYLLQLVQVLKYEPFLDCALSRFLLERALGNRRIGQFLFWHLRSEVHIPAVSVQFGVILEAYCRGSVGHMKVLSKQVEALNKLKTLNSLIKLNAVKLNRAKGKEAMHTCLKQSAYREALSDLQSPLNPCVILSELYVEKCKYMDSKMKPLWLVYNNKVFGEDSVGVIFKNGDDLRQDMLTLQMLRLMDLLWKEAGLDLRMLPYGCLATGDRSGLIEVVSTSETIADIQLNSSNVAAAAAFNKDALLNWLKEYNSGDDLDRAIEEFTLSCAGYCVASYVLGIGDRHSDNIMVKKTGQLFHIDFGHILGNFKSKFGIKRERVPFILTYDFIHVIQQGKTGNTEKFGRFRQCCEDAYLILRRHGNLFITLFALMLTAGLPELTSVKDIQYLKDSLALGKSEEEALKQFKQKFDEALRESWTTKVNWMAHTVRKDYRS | failed
MCLPIHVKYDWFCRLCKTGRTLRPTSLQRGRAMASLTLRHLAGNTWLIPAPAAIGVYVRNGRAVLIDSGNDEEAGRQILKLLNGQGWTLDLIVNTHSNADHIGGNAFLQKKTGCRVAATVPEAAFIANPILEPSFLYGGYPVKALRNKFLMAKPSTVTDIIEAIGPILDTGLEAVPLAGHFFGMIGIRTPDGVLFAADSLFPETILAKYPIFYLYDIREHLASLQRLRELEAAIYVPSHGAPSPEILPLIEANEQRVRQTVSFVESCCTDAPASFETVLERVCGEYGIVLDPNQYVLVGNTIRSILAFLSEEGRLAMIFDGGRLLWGTAADQREA | failed
MCNAKDIYTAGWALVVMAGLVSLAIQVYLGYFRLDDMVKHLSRCRVIAIRMPLLGKDPLSRFFMLLCIGALFAMPHLFLRNGGLNVKDYRKFPLGLKWLINLFQFAALVAVIAFLVLWWVSRHL | failed
MCPAVVPDDPHALTAPSPWVVRWAAPLPAGARVLDVACGSGRHVRWLAARGLRVTGIDRDADALSGLSEAADTLIADIEDGLWPLPAEAVFDAVVVTNYLYRPLWPRLLACVAPGGRLIYETFAVGNETVGKPSNPAFLLAPGELLEAVRGQLRVIGYEDGFIAAPREAYVQRLCAVRESAGAQARRYAL | failed
